Here are results for 1 molecule from paper PMC7655986.

The target of the assay is T1, recombinant Fc-construct of the Dsg2 extracellular domain, Q14126.
T1 chain: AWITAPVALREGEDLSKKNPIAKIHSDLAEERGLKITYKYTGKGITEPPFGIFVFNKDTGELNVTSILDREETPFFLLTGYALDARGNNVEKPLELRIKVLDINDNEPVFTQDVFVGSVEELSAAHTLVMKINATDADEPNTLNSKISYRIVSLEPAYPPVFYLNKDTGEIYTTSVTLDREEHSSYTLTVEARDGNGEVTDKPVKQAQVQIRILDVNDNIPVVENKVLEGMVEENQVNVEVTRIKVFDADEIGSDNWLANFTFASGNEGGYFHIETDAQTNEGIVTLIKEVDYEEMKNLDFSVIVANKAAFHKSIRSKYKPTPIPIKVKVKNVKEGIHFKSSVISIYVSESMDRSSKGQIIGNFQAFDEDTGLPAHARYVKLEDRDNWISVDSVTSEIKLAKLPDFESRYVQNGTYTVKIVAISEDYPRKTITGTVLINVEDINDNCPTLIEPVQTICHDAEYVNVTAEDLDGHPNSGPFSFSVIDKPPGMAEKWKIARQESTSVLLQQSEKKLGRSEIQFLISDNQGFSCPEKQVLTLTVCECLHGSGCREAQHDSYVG
Description: atomic force microscopy (cell-free single-molecule force measurements); Dsg-Fc constructs (0.15 mg/ml) linked by a PEG linker to the cantilever tip and to mica sheets; Force Mapping mode; binding frequency and unbinding force; pulling speeds from 1 to 20 µm/s and modified Bells equation for the bond lifetime; 5 mM EGTA for 1 h lowered the binding frequency. The conditions noted are these: remark: other sources report otherwise.

B1: recombinant Fc-construct of the Dsg2 extracellular domain, Q14126 50-609 (Fc fusion)
chain: T1 chain
As to B1, the bond lifetime came out at 0.12 s.
